For this test, the target named is soluble HA of A/Aichi/2/68 (H3N2) modified at the C-terminus with the GCN4pII trimerization repeat (influenza A virus A/Aichi/2/68 (H3N2) | Saccharomyces cerevisiae) (UniProt P03437). The experiment in a line: cross-linking.

The values below come from publication PMC2931692.

As a reminder, the stoichiometry N is the number of molecules, sites or subunits per partner or assembly.

Turning to “soluble HA of A/Aichi/2/68 (H3N2) modified at the C-terminus with the GCN4pII trimerization repeat (from UniProt P03437 17-528)”, the stoichiometry N came out at 3.
